First the molecules themselves.
B1: GAL4 DNA-binding domain-fchd540 fusion (other, UniProt P04386 1-147, looked up)
chain: MKLLSSIEQACDICRLKKLKCSKEKPKCAKCLKNNWECRYSPKTKRSPLTRAHLTEVESRLERLEQLFLLIFPREDLDMILKMDSLQDIKALLTGLFVQDNVNKDAVTDRLASVETDMPLTLRQHRISATSSSEESSNKGQRQLTVSMFRTKRSALVRRLWRSRAPGGEDEEEGAGGGGGGGELRGEGATDSRAHGAGGGGPGRAGCCLGKAVRGAKGHHHPHPPAAGAGAAGGAEADLKALTHSVLKKLKERQLELLLQAVESRGGTRTACLLLPGRLDCRLGPGAPAGAQPAQPPSSYSLPLLLCKVFRWPDLRHSSEVKRLCCCESYGKINPELVCCNPHHLSRLCELESPPPPYSRYPMDFLKPTADCPDAVPSSAETGGTNYLAPGGLSDSQLLLEPGDRSHWCVVAYWEEKTRVGRLYCVQEPSLDIFYDLPQGNGFCLGQLNSDNKSQLVQKVRSKIGCGIQLTREVDGVWVYNRSSYPIFIKSATLDNPDSRTLLVHKVFPGFSIKAFDYEKAYSLQRPNDHEFMQQPWTGFTVQISFVKGWGQCYTRQFISSCPCWLEVIFNSR
notes: Yeast two-hybrid bait; also called fchd540 bait protein; pGBT9-fchd540
B2: GAL4 transcriptional activation domain-rchd534 fusion (other, human, UniProt O43541-2 1-235, looked up, not shown: large carriers)
chain: MSRMGKPIETQKSPPPPYSRLSPRDEYKPLDLSDSTLSYTETEATNSLITAPGEFSDASMSPDATKPSHWCSVAYWEHRTRVGRLYAVYDQAVSIFYDLPQGSGFCLGQLNLEQRSESVRRTRSKIGFGILLSKEPDGVWAYNRGEHPIFVNSPTLDAPGGRALVVRKVPPGYSIKVFDFERSGLQHAPEPDAADGPYDPNSVRISFAKGWGPCYSRQFITSCPCWLEILLNNPR
notes: Yeast two-hybrid fish; also called rchd534 fish protein; Smad6
B3: GAL4 activation domain fusion to SV40 (other)
chain: PTYGTDEWEQWWNAFNEENLFCSEEMPSSDDEATADSQHSTPPKKKRKVEDPKDFPSELLSFLSHAVFSNRTLACFAIYTTKEKAALLYKKIMEKYSVTFISRHNSYNHNILFFLTPHRHRVSAINNYAQKLCTFSFLICKGVNKEYLMYSALTRDPFSVIEESLPGGLKEHDFNPEEAEETKQVSWKLVTEYAMETKCDDVLLLLGMYLEFQYSFEMCLKCIKKEQPSHYKYHEKHYANAAIFADSKNQKTICQQAVDTVLAKKRVDSLQLTREQMLTNRFNDLLDRMDIMFGSTGSADIEEWMAGVAWLHCLLPKMDSVVYDFLKCMVYNIPKKRYWLFKGPIDSGKTTLAAALLELCGGKALNVNLPLDRLNFELGVAIDQFLVVFEDVKGTGGESRDLPSGQGINNLDNLRDYLDGSVKVNLEKKHLNKRTQIFPPGIVTMNEYSVPKTLQARFVKQIDFRPKDYLKHCLERSEFLLEKRIIQSGIALLLMLIWYRPVAEFAQSIQSRIVEWKERLDKEFSLSVYQKMKFNVAMGIGVLDWLRNSDDDDEDSQENADKNEDGGEKNMEDSGHETGIDSQSQGSFQAPQSSQSVHDHNQPYHICRGFTCFKKPPTPPPEPET
notes: Two-hybrid control
B4: GAL4 DNA-binding domain fusion to Drosophila MAD (other, UniProt P04386 1-147, looked up)
chain: MKLLSSIEQACDICRLKKLKCSKEKPKCAKCLKNNWECRYSPKTKRSPLTRAHLTEVESRLERLEQLFLLIFPREDLDMILKMDSLQDIKALLTGLFVQDNVNKDAVTDRLASVETDMPLTLRQHRISATSSSEESSNKGQRQLTVSMDTDDVESNTSSAMSTLGSLFSFTSPAVKKLLGWKQGDEEEKWAEKAVDSLVKKLKKRKGAIEELERALSCPGQPSKCVTIPRSLDGRLQVSHRKGLPHVIYCRVWRWPDLQSHHELKPLELCQYPFSAKQKEVCINPYHYKRVESPVLPPVLVPRHSEFAPGHSMLQFNHVAEPSMPHNVSYSNSGFNSHSLSTSNTSVGSPSSVNSNPNSPYDSLAGTPPPAYSPSEDGNSNNPNDGGQLLDAQMGDVAQVSYSEPAFWASIAYYELNCRVGEVFHCNNNSVIVDGFTNPSNNSDRCCLGQLSNVNRNSTIENTRRHIGKGVHLYYVTGEVYAECLSDSAIFVQSRNCNYHHGFHPSTVCKIPPGCSLKIFNNQEFAQLLSQSVNNGFEAVYELTKMCTIRMSFVKGWGAEYHRQDVTSTPCWIEIHLHGPLQWLDKVLTQMGSPHNAISSVS
notes: Yeast two-hybrid bait; also called Dros; MAD; MAD bait protein

Assay in all cases: yeast two-hybrid mating assay (HIS3 and lacZ reporters)
Assay [1] concerns the target B3. An excerpt:
(§1) Yeast expression plasmids encoding the GAL4 DNA-binding domain either alone or fused in frame to fchd540, rchd534, Drosophilia MAD, DPC4, or p53 were transformed into MATa two-hybrid screening strain HF7c. Yeast expression plasmnids encoding the GAL4 transcriptional activation domain alone and GAL4 activation domain fusions to rchd534 and SV40 were transformed into MATα two-hybrid screening strain Y1 87. p53 and SV40 interact with each other and should not interact with the experimental proteins. The HF7c transformants were propagated as stripes on semisolid synthetic complete medium lacking L-tryptophan and the Y187 transformants were grown as stripes on semisolid synthetic complete medium lacking L-leucine. Both sets of stripes were replica plated in the form of a grid onto a single rich YPAD plate and the haploid strains of opposite mating types were allowed to mate overnight at 30° C. The yeast strains on the mating plate were then replica plated to a synthetic complete plate lacking L-leucine and L-tryptophan to select for diploids and incubated at 30° C. overnight. Diploid strains on the synthetic complete plate lacking L-leucine and L-tryptophan were replica plated to a synthetic complete plate lacking L-leucine, L-tryptophan, and L-histidine to assay HIS3 expression and a paper filter on a synthetic complete plate lacking L-leucine and L-tryptophan. The next day the paper filter was subjected to the paper filter beta-galactosidase assay to measure expression of the lacZ reporter gene. HIS3 expression was scored after 3 days of growth at 30° C.
(§2) It was confirmed that these rchd534 cDNAs encode proteins that physically interact specifically with fchd540. Yeast expression plasmids encoding the GAL4 DNA-binding domain either alone or fused in frame to fchd540, rchd534, Drosophila MAD, DPC4, and p53 were transformed into MATa two-hybrid screening strain HF7c. Yeast expression plasmids encoding the GAL4 transcriptional activation domain (GAL4 AD) alone and GAL4 activation domain fusions to tchv03a, tchvR4A and SV40 were transformed into MATα two-hybrid screening strain Y1 87. p53 and SV40 interact with each other and should not interact with the experimental proteins. The HF7c transformants were propagated as stripes on semi-solid synthetic complete medium lacking […].

For assay [2], the target named is B4.
Source text: as §1, §2

Assay [3] addresses T1, GAL4 DNA-binding domain fusion to DPC4 (UniProt P04386 1-147; Q13485 1-552, limits assumed).
T1 construct: Yeast two-hybrid bait; also called DPC4 bait protein
Source text: as §1, §2

Regarding B1, in assay [1], the binding result is “no binding”.

In the case of B2, the binding result in assay [2] and in assay [3] was “no binding” in each case.

On to B3, for which, in assay [3], the binding result is given as “no binding”.

For the molecule B4, the binding result in assay [1] is listed as “no binding”.

Values taken from US6359194 (Takeda / Millennium, dated 2002).
